Test results as given in patent publication US6284871.

What was measured:
[1] = target: purified human Factor IXa (human) (UniProt P00740)
[2] = target: non-activated Factor IX (Homo sapiens (Human)) (UniProt P00740)
[3] = target: purified human Factor IXa (human) (UniProt P00740); remark: listed apart in the source
[4] = target: non-activated Factor IX (Homo sapiens (Human)) (UniProt P00740); test: equilibrium binding in solution (method of Friguet): 30 nM Factor IX with varying peptide, non-bound Factor IX measured on immobilized peptide
[5] = target: purified human Factor IXa (human) (UniProt P00740); test: equilibrium binding in solution (method of Friguet): 30 nM Factor IXa with varying peptide, non-bound Factor IXa measured on immobilized peptide

Row | Molecule | Anticoagulant activity in the APTT test (prolongation of the clotting time in seconds) [1] [s] | half-maximal inhibition in the APTT test [2] [mM] | half-maximal inhibition in the APTT test [3] [mM] | Kd [4] [µM] | Kd [5] [µM]
1 | complete Factor VIII light chain (residues 1649-2332) (from UniProt P00451) | 8.6 |  |  |  | 
2 | KNFVKPNETKTYFWK [compound … (SEQ ID NO: 3), synthetic peptide of Factor VIII A3-domain residues 1804-1818] |  | 0.3 | 0.3 | 230 | 200
